In the domain aggregation screens of Martell et al. (2025):

Experiment: soluble fraction after stress (log2 fold change); higher = more stays soluble; pooled small domains, quantitative proteomics
Conditions: stress: pH 4
In short: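 Aggregation propensity here comes from the fold change in the soluble amount of each small protein domain after acid stress, measured in pooled custom libraries by high-throughput quantitative proteomics. The acid stress was pH 4. On the log2 scale, higher values mean more of the domain stayed soluble.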
In the case of “HMTQFSASSERAGAGGAYRTTLRAMEQNGDLLQISILLPDAVTAKHAATVWPERAQAIYTAILSELLK”, the “soluble fraction (log2)” value is reported as -0.167. For “HMTQGIDQISFSQFLDKVQSGEVTDVRISGSDITGTLKTGGKFETVAGNYEKIWDLLRENKVVFVVDSP”, the “soluble fraction (log2)” value was -0.309. With “HMTQNSAITNRVLYMQRTLRQYGYAVPESGNFDRTTRAHAAEFLYNATGLPVRENQSVQEFYRAFQRVQG” the “soluble fraction (log2)” value was 0.203. In the case of “HMTQRRLQSELDSIPGVGAGTRTKLLRTLGSVDAVLRASEAELLAAGANRRQVASIQAHAAAVER”, the “soluble fraction (log2)” value is reported as 0.0567. For “HMTQSQSLQSQFEQLEKAYQDNLHLLSPKQKLIIQEAGKIIQQLPQQAQIQAKVNLYQSLSAEISKESQQ”, the “soluble fraction (log2)” value was -0.107. In the case of “HMTQTDINQIETLVHEGNKLAAVKLLMDTAHIGLKEAKDIIDNFFLGKQTDLQAAVAQVQTR”, the “soluble fraction (log2)” value is reported as -0.722. For “HMTRHIQVNDSIASTPIEDVYFSTRTYNALLNNGISVIGDLSKYTHDDLYASFQGLGRAGVLEIEAYLRQD”, the “soluble fraction (log2)” value was -1.32. For “HMTRHSSVDFAGYILRNKENEPIFGFGKHKGKTVVEVLQREQGYFGWLMEADFPLYTKKVLTAIRLNTLNS”, the “soluble fraction (log2)” value was 0.316. For “HMTRLDLQNAFRVLPPEIQPAAVLFFLQERKQREIAKILGIGLPLVKYRIRKARELLAQFLRKEA”, the “soluble fraction (log2)” value was -0.073. In the case of “HMTRNEFLTALRGRLSALPKEEQDAALKYYEEYFDEAESEEDAARQLGSPDSIAEKILADYA”, the “soluble fraction (log2)” value is reported as -0.00949. For “HMTRQNTAVQQSDMAHHKASELTEGMSIVHSHFGRGTIISIETADDPRVTVDFSSEGRKTMLLRFAKFAIE”, the “soluble fraction (log2)” value was -1.08. In the case of “HMTRQRQLIYNIIQRADDHPTAEMIYARAKAEMPSIAFGTVYRNLKLMVDAGEILHIPVAGEPDRYDK”, the “soluble fraction (log2)” value is reported as 0.142. For “HMTRVANIPYSEFLKLVETDKINDVSMVGKTISGHLDDGTKFSTYTPPNDPNLIDKLSKHNVIIKAGPE”, the “soluble fraction (log2)” value was 0.0499. With “HMTRVDKLQTWLSLPREQRDWDEGALMLLQLTGNKIMYRNLSVNPEGKANFIEGKLQQYLEFRLA” the “soluble fraction (log2)” value was -1.16. In the case of “HMTSAHEKAFDLFDGGKLSEKALLIAVGAERSGFELAGDLRLRTLTAFEDGRLSEDAMIKLL”, the “soluble fraction (log2)” value is reported as -1.5. With “HMTSAIAEGTVIRLTQSTNIRESMSEDAPKVATAFSGEKVTVIMSYAEGWTKVTYGDKTGYIKTELL” the “soluble fraction (log2)” value was -0.443. With “HMTSAPHHIAAVLRDAIYRGVLEEGGPLHQARIAQSLGVSPIPLREALRLLETEGLVEFRGYRGAFVT” the “soluble fraction (log2)” value was -0.8. In the case of “HMTSDADSLRDKTGYVAEQVTSKGGKVNLYDGGFDSLYSARSTGETISTGTEIRVVDPGGGNMLVVEPV”, the “soluble fraction (log2)” value is reported as -0.356. In the case of “HMTSDYEPSEKDEKAVIGIAFLRNTDVYDVDIDKAEAIKALKANNDIYQKFVKFFPFVKLPSLYDDFQ”, the “soluble fraction (log2)” value is reported as -0.109. In the case of “HMTSGPAWPALSAQQRSVLAPLQRDWHTIDAARKAKWLEVAARFPSMPAEERQRVQERMAEWA”, the “soluble fraction (log2)” value is reported as -0.0144. With “HMTSKIIIGDSYSKINKLLGEPENMKKRKFLDNEYLMVLYSINKKNYRLYFKDNILFELEDI” the “soluble fraction (log2)” value was -0.582. For “HMTSLQDLLEELRVIRETLTGSQVLSDMQLFSQLRNLGDIKAALTRMQDNPAAARMVGEVDKLLETMFAS”, the “soluble fraction (log2)” value was -1.56. With “HMTSLSYINDLVTGATAQGLYRIVVPNQFMDDNMANVLRRTYGYQVQSRTSLMGTFDDYIISWAPPM” the “soluble fraction (log2)” value was -1.59. For “HMTSMTHLGRHPDSEISLDDISVSRRHAEIERQGHEYVLRDSGSLNGTYVNQQRVDSVVLQQGDEIL”, the “soluble fraction (log2)” value was -0.277. With “HMTSPLQIHPNPATKHIELGLESPEVVLIKDINGKTVYQELVAPNQYIDIEHLKNGIYFIESKNKFGKLIK” the “soluble fraction (log2)” value was 0.29. With “HMTSPNPLIRSTTPGLETNKKGGIIVDENEMSTRENVFAGGDAVTGAATVILAMGAGKKAAAAIDAKLQN” the “soluble fraction (log2)” value was 0.22. With “HMTSPQGIERFLASGVIEGVGKAMAARIVAVFGGQTLEIIEKQPHRLREVRGIGVKTAEKIHASYQEKA” the “soluble fraction (log2)” value was -0.203. With “HMTSPVEDLLDKAIQLYREENFEEAIAKWEEVLALDPSKLEAKFNIEIAQDRIKEKQIQEDLKSS” the “soluble fraction (log2)” value was -0.935. With “HMTSQVTVHVVGAVEKPGVVTLDAPSRVQDALEAAGGALPEAELSGVNLARELFDGEQIVVPAQGEDV” the “soluble fraction (log2)” value was 0.0598. In the case of “HMTSSVIIPKLIGKTEEEAKVALAGLNVQVLYETHGDQANGIVIKQSFEEGTKVIKGVSIVITVNKVS”, the “soluble fraction (log2)” value is reported as -0.256. With “HMTSTEQEILIEHMVDRLPALRKKYGISQTELGEKIGLSRQTISAIERKTTPLTWTTMLAILMFFT” the “soluble fraction (log2)” value was -0.425. With “HMTSTSVKYVNSSSGLNVRKGPSTSYDKVTTLVNGTKVTVISTNNGWSKITSGSITGYVSSQYLSSSS” the “soluble fraction (log2)” value was -0.284. In the case of “HMTSVAYVIDRINKIQNVYSELEALGLKDEFEKILSNIEDLSKKDIREIKTLLKTKGVIKNLDDLNVKL”, the “soluble fraction (log2)” value is reported as -1.24. With “HMTSVQDLLRNGDRVGYQNGSTVKYWLEEMGFHKKDLLGYVTVEEYAEALQRGSGNGGVSAIVD” the “soluble fraction (log2)” value was -1.7. With “HMTTARERVYKTLQQWIVNGTLLPEERLNDVELARYFSVSRTPVREALQMLAEQKLVKMVPSSGTFVA” the “soluble fraction (log2)” value was -0.0644. With “HMTTELDTTAITPIIQKVLKANPDVVAKYKAGQQQVIGFLMGQVMRELSTKPNPKELQSLIVAQLQQA” the “soluble fraction (log2)” value was -0.0703. With “HMTTGEIIQRERTRLGLSQEKLAEQVGVSRQAVSKWELGDAVPDTDKLVPLARTLGISVDTLLD” the “soluble fraction (log2)” value was 0.0499. For “HMTTGGAEELGRTERKIVEQVGRGLSNREIAQVLGLSEGTVRNYLSTILGKLGLRDRTQLAIWSVQTGFAA”, the “soluble fraction (log2)” value was -0.371. For “HMTTHERHEIIELLRQVGDPMRPKEISEALGKPSGAIRFLLSKLTEEGAIKKTGYGQYTYIP”, the “soluble fraction (log2)” value was -0.0635. In the case of “HMTTLTPIGKMKGEIDGDFEAFYLAVDKDGQVYLNRDPDYSENRYEKSRGWELVTREQLAVYEKELHFIP”, the “soluble fraction (log2)” value is reported as -0.25. With “HMTTMYKSDVKGINYDVKAKSWFLRITFNGNQIPIGHFKTEEDAINVKQQLIPYIESKDYTSILAVKAKYS” the “soluble fraction (log2)” value was at least 0.43. With “HMTTPDIIVPDVKGMTVAEAQKALEEKGFKVKLEEMTQEGAVPGDVIRIDPVAGTKRKEGAKITLLIARG” the “soluble fraction (log2)” value was -0.0525. For “HMTTQTGTVKWFNEGKGFGFIAPDDGGKDLFAHFKEIQGTGFKTLAENQRVEFEVTQGQKGPQASKI”, the “soluble fraction (log2)” value was -0.469. For “HMTTQTTKYVNTTAGLNVRTGPSTSYAKIVTLSYGQSVNVLSTSNGWSKINYNGSTGYVSSQYLQSTKPS”, the “soluble fraction (log2)” value was 0.0265. For “HMTTSNPMNVTSAEAAFDNGTDRLNAFISGRTTSEERSTYFPLFVRETKEDFLRAVGRFNEYIANHG”, the “soluble fraction (log2)” value was 0.0839. In the case of “HMTTTAGTAVVQTGNSGKLNLREQAYSNAGILGRYSNGTIVTVLQKGSAWSYVEVQGQKGYMMSKFLRFT”, the “soluble fraction (log2)” value is reported as -0.386. With “HMTTTFGWENLVGEKGIAATDLHPSGWVTVKDQRVFVVSEGTFIEEGKEVEIMNVDGNRIVVREFKN” the “soluble fraction (log2)” value was -0.46. For “HMTTTPTSQMVTELRSRGWTLRALAQRLGVGHASINRWANGVTPDRDLVAALRALVASGEVP”, the “soluble fraction (log2)” value was -0.00752. For “HMTTTYEINDEMLKPLILEIFNKSKQRFGSTKIAPVLKREGYTASIAKVKTLMNELGIKPVNA”, the “soluble fraction (log2)” value was 0.206. With “HMTTTYTVPKVTGMTLEEAREDPDVVGRFTIVEGEKVTSDTVPVGQIVSQEPAAHRQVGEDGLTITVNIS” the “soluble fraction (log2)” value was -0.2. With “HMTTVKDRVYEILKREIVLGKLKPGEPINIAVLSTKLNISSAPLREALNMLSRDGLVTLNPRKHAAVSE” the “soluble fraction (log2)” value was -0.0431. For “HMTTVRLNATVPPELALQRLDRVARELFPEYSRNRLQQWIRSGELLVNGSPSGVRDKVPLGAELAVAANLE”, the “soluble fraction (log2)” value was -0.343. For “HMTTVSINTTGIITASTIRASSALYPPLYTTVQRDAGTFSAGAIIFNSTTSKLEFYDGTTWQSLPG”, the “soluble fraction (log2)” value was 0.285. In the case of “HMTTVTVGSKVRVKAGATFSDGAKPFAEVYNTVYDVQLLSHNGKEARIGIGDQWTGWIYISDLYLANQPAP”, the “soluble fraction (log2)” value is reported as -0.101. In the case of “HMTVEMYIGKTANVLETVTENNGRIAIFGEEWQAKSLNGETIEKGAQAKIVKNDSIIMYVVPI”, the “soluble fraction (log2)” value is reported as -0.367. For “HMTVGENTYELIKKDIIFGVLPPLKKLKLQELKKIYNASVSTLREILSRLTGDGFVFSEEQKGFYVSPV”, the “soluble fraction (log2)” value was -0.33. In the case of “HMTVKEVGYDTFLTMLDKKEIKQVQVEDNQIIFSDNADPVNYYKTGVFNDPDLVNRLQDAGVEFG”, the “soluble fraction (log2)” value is reported as -0.37. In the case of “HMTVKEYNRAVDEYSDAVWRFIRGNLRDEDRANDIVQDSFEKLWMHVTEIDYSVAKSWLFSTAYNNMIDI”, the “soluble fraction (log2)” value is reported as -0.899. In the case of “HMTVKKLTINEDNSGRRIDNYLLSIFNSLPRSKIYNIIRKGEVRVNSSRIKPNYRLEQGDLVRIPPNLEFT”, the “soluble fraction (log2)” value is reported as 0.0853. For “HMTVKRNLVQEILRLKFRHPENFMPNRAFYQEVGINQMRWWDIFYGRKNINQEEYIALSKYF”, the “soluble fraction (log2)” value was -0.352. For “HMTVLPTEQDAKALVGLGEEEAAKIVEGNGWTYRIGSRDGEQFMLTEDFVTSRLTLGIEKAIVMTATI”, the “soluble fraction (log2)” value was -2.11. In the case of “HMTVLSKEEFVAIEQRLLQLLGTAPVDNKILLQQLSGIKKEKAWKVLSFLQAENKIGMDATGRVYL”, the “soluble fraction (log2)” value is reported as -0.697. With “HMTVPDVKGMGARDAVFLLETLGFKVRINGIGQVYEQSIDPGKSYSKGEFISLRL” the “soluble fraction (log2)” value was -0.81. With “HMTVPNVVGQRILAAQDILKNLGLKVLVDTNLPNSQWGLRNVKSTNPGAGAVVRVGDTVTLIAR” the “soluble fraction (log2)” value was 0.124. In the case of “HMTVPTEVALELMHATALEDNEQRILYIASFKEKHREHLHATIEVDGQEVTLARYADLVATGAYL”, the “soluble fraction (log2)” value is reported as -2.15. In the case of “HMTVSADIIQKIIKTSTTDENIITIDSISNSISKLALSKITAEDIIEILEASSLVLRNSNGSWTVL”, the “soluble fraction (log2)” value is reported as -0.716. For “HMTVSKLKVINYTIRNGDSLWTISRKFNVTVDKVKEWNGLSDRTLLQPGQKLTLYVDPTIQISH”, the “soluble fraction (log2)” value was -0.406. In the case of “HMTVSLLQTRQRLQALADLGHYKGDLGAAWGPDAIEALKKAQATLGVTVDGKWGPQTEDAIQVALKVQ”, the “soluble fraction (log2)” value is reported as -0.0459. For “HMTVTISPGYEGRLLRSYLKNTLSLSTSALARLKTREDGITVNGVRVTVRYVLHAGDLLQLAVD”, the “soluble fraction (log2)” value was 0.22.
